Laboratory results taken from article doi:10.1101/2025.03.21.644421 (bioRxiv, 2025).

Legend:
[1] = biological target: T1, LetA (N-terminal 6xHis2xQH-TEV tagged LetA) (E. coli, UniProt P0AD03 1-427); test: cryo-EM structure
T1 sequence (looked up): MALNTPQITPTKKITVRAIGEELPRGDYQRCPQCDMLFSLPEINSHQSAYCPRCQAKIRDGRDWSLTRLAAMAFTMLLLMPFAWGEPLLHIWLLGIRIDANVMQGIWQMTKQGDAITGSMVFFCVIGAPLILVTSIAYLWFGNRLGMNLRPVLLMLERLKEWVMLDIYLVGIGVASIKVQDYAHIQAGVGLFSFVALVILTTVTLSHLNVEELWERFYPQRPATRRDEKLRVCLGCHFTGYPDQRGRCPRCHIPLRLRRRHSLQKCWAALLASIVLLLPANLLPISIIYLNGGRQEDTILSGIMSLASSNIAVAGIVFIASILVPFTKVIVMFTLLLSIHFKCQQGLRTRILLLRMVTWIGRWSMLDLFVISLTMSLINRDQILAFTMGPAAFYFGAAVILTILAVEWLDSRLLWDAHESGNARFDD

cryo-EM structure = biological target: the molecule itself; test: cryo-EM structure

B1: LetB (Lipophilic Envelope-spanning Tunnel B), untagged (natural protein, E. coli, UniProt P76272 1-877, looked up)
chain: MSQETPASTTEAQIKNKRRISPFWLLPFIALMIASWLIWDSYQDRGNTVTIDFMSADGIVPGRTPVRYQGVEVGTVQDISLSDDLRKIEVKVSIKSDMKDALREETQFWLVTPKASLAGVSGLDALVGGNYIGMMPGKGKEQDHFVALDTQPKYRLDNGDLMIHLQAPDLGSLNSGSLVYFRKIPVGKVYDYAINPNKQGVVIDVLIERRFTDLVKKGSRFWNVSGVDANVSISGAKVKLESLAALVNGAIAFDSPEESKPAEAEDTFGLYEDLAHSQRGVIIKLELPSGAGLTADSTPLMYQGLEVGQLTKLDLNPGGKVTGEMTVDPSVVTLLRENTRIELRNPKLSLSDANLSALLTGKTFELVPGDGEPRKEFVVVPGEKALLHEPDVLTLTLTAPESYGIDAGQPLILHGVQVGQVIDRKLTSKGVTFTVAIEPQHRELVKGDSKFVVNSRVDVKVGLDGVEFLGASASEWINGGIRILPGDKGEMKASYPLYANLEKALENSLSDLPTTTVSLSAETLPDVQAGSVVLYRKFEVGEVITVRPRANAFDIDLHIKPEYRNLLTSNSVFWAEGGAKVQLNGSGLTVQASPLSRALKGAISFDNLSGASASQRKGDKRILYASETAARAVGGQITLHAFDAGKLAVGMPIRYLGIDIGQIQTLDLITARNEVQAKAVLYPEYVQTFARGGTRFSVVTPQISAAGVEHLDTILQPYINVEPGRGNPRRDFELQEATITDSRYLDGLSIIVEAPEAGSLGIGTPVLFRGLEVGTVTGMTLGTLSDRVMIAMRISKRYQHLVRNNSVFWLASGYSLDFGLTGGVVKTGTFNQFIRGGIAFATPPGTPLAPKAQEGKHFLLQESEPKEWREWGTALPK
For B1, the “stoichiometry N” value [1] was 6 LetB per LetA and the “stoichiometry N” value (cryo-EM structure) was 6.
